The target in assay [1] is T1, hIGF-1R-Fc mutant SD015 (H464E) (human, UniProt P08069 31-933).
T1 construct: not shown: human IgG1 Fc, C-terminal tag
As to the kind of experiment: SPR (Biacore relative RUmax) and tr-FRET competition. Here is the method: After, completion of the receptor-Fc loading step, flow rates were elevated to 5 μl/min. […] At the end of each sensorgram, the flow rate was elevated to 30 μl/min and the chip surface was regenerated by 2×10 μL injections of 0.1 M glycine, pH 2.

In assay [2] the target is T2, human IGF-1R on H322M non-small cell lung cancer cells (human, UniProt P08069 31-1367).
T2 construct: Endogenous receptor of the tumor cell line; also called cell surface IGF-1R
Nature of the assay: flow cytometry on H322M cells. Here is the method:
Cell lines were routinely cultured no greater than 20 passages. Flow cyotometric analysis of antibody binding to human cancer cells. Cells were lifted with cell dissociation buffer (Gibco catalog #13151-014), counted, washed and adjusted to 5×10⁶ cells/ml. Cells (2.5×10⁵; 50 uL) were added to each well of a 96-well round bottom plate (Costar #3799). Purified antibodies were tested at a starting concentration of 300 nM with serial half-log dilutions in FACS buffer. FACS buffer used throughout the assay was PBS (without Ca++/Mg++) containing 5% FBS. Samples were incubated on ice for 30 minutes, washed 3× with 200 uL FACS buffer and centrifuged at 1200 rpm for 3 minutes at 4° C. C2B8 (rituximab, IgG1) was used as a negative control. […] Samples were incubated for an additional 30 minutes on ice, shielded from light. Cells were washed as described above and resuspended in 100 μl FACS buffer containing propidium iodide (PI) for dead cell exclusion (BD Pharmingen, catalog# 51-66211E or 556463; use at 1:500 final in FACS buffer). Samples were run in triplicate using the FACSArray flow cytometer (Becton Dickinson) with 5000 live events collected per sample. Data analysis was performed using the GraphPad Prism version 5.0 software (GraphPad Software Inc., 11452 El Camino Real #215, San Diego, Calif. 92130). Results. […]

The target of assay [3] is T3, human IGF-1R(1-903)-Fc (human, UniProt P08069 31-933).
T3 construct: also called hIGF-1R-Fc; SDWT; not shown: human IgG1 Fc, C-terminal tag
As to the kind of experiment: ELISA, blocking of IGF-2 His (640 nM by the table head) on biotinylated hIGF-1R-Fc.

Assay [4] deals with T4, sIGF-1R(1-903) (human, UniProt P08069 31-933).
T4 construct: also called soluble IGF-1R ectodomain
As to the kind of experiment: ITC series titration, C06 MAb first. As for the experimental part: (§1) The protein solutions were prepared as described above for the MAb binding experiments. All ITC experiments were performed on an ITC₂₀₀ microcalorimeter (MicroCal, LLC) at 25° C. […] IGF-1R bispecific antibodies. A four minute equilibration period was used between all injections with an initial delay of 60 seconds. Numerical integration of the data was performed using the ITC data analysis software supplied by MicroCal (Origin). ΔHA° (T) values were calculated based on the difference between the average heat liberated/absorbed during the binding phase of the injections and the average heat of dilution found once the receptor, IGF-1R, was saturated with MAb or BsAb.
Both the dimeric receptor and the bivalent MAbs contain two potential binding sites.

For assay [5], the target named is T3, human IGF-1R(1-903)-Fc. As to the kind of experiment: IGF-2 blocking ELISA: antibody titrated in 640 nM IGF-2 His on biotinylated hIGF-1R-Fc on streptavidin plates, bound ligand detected with anti-His-HRP.
Assay [6] has as its target T4, sIGF-1R(1-903). As to the kind of experiment: ITC, 25 °C; footnote a: affinity too high for accurate measurement. Here is the method: as §1, with “Isothermal Titration Calorimetry (ITC). […] The reagents were co-dialyzed against PBS, pH 7.2. The protein solutions were adjusted to the concentrations listed above by dilution using PBS dialysate. […] The” for “The”
The target of assay [7] is T3, human IGF-1R(1-903)-Fc. As to the kind of experiment: IGF-1 blocking ELISA at 1280 nM IGF-1 His on biotinylated hIGF-1R-Fc. Here is the method:
The dilutions were added to the plates in duplicate at 100 μL/well and the plates were incubated at RT for 1 hour. The plates were then washed four times with 200 μL/well PBST. An HRP-conjugated anti-Histag antibody (Penta-His HRP Conjugate, QIAGEN, Cat. No. 1014992) was diluted 1:1000 in PBST and added to plates at 100 μL/well, and the plates were incubated at RT for one hour. The plates were then washed four times with 200 μL/well PBST. SureBlue Reserve TMB Microwell Peroxidase Substrate (KPL, Cat. No. 53-00-01) was added to plates at 100 μL/well followed by 1% phosphoric acid at 100 μL/well once the desired reaction was observed. The absorbance of each well was determined at 450 nm, and the results were normalized and plotted against the log of antibody concentration.
Ligand Blocking Properties.

Assay [8] deals with T5, hIGF-1R-Fc mutant SD102 (E459A, S460A) (human, UniProt P08069 31-933).
T5 construct: not shown: human IgG1 Fc, C-terminal tag
Nature of the assay: SPR, Fab over captured mutant. As for the experimental part:
Surface plasmon resonance (SPR) experiments were performed on a Biacore 3000 instrument set to 25° C. […] The antibody sensorchip surfaces were prepared by injecting each antibody (diluted 100 μg/mL in 10 mM Acetate, pH 4.0) over EDC/NHS-activated sensorchip surfaces according to the standard protocol of the manufacturer. […] Both hIGF-1R-Fc and mIGF-1R-Fc proteins oligomerize due to the incorporation of two separate homodimeric regions (IGF-1R and IgG1-Fc). […] After, completion of the receptor-Fc loading step, flow rates were elevated to 5 μl/min. […] Dissociation was measured for 7 minutes after the antibody injections were complete. Finally, the flow rate was elevated to 30 μL/min and the chip surfaces were regenerated by 2×10 μL injections of 0.1 M glycine, pH 2.

T4 sequence (P08069 31-933): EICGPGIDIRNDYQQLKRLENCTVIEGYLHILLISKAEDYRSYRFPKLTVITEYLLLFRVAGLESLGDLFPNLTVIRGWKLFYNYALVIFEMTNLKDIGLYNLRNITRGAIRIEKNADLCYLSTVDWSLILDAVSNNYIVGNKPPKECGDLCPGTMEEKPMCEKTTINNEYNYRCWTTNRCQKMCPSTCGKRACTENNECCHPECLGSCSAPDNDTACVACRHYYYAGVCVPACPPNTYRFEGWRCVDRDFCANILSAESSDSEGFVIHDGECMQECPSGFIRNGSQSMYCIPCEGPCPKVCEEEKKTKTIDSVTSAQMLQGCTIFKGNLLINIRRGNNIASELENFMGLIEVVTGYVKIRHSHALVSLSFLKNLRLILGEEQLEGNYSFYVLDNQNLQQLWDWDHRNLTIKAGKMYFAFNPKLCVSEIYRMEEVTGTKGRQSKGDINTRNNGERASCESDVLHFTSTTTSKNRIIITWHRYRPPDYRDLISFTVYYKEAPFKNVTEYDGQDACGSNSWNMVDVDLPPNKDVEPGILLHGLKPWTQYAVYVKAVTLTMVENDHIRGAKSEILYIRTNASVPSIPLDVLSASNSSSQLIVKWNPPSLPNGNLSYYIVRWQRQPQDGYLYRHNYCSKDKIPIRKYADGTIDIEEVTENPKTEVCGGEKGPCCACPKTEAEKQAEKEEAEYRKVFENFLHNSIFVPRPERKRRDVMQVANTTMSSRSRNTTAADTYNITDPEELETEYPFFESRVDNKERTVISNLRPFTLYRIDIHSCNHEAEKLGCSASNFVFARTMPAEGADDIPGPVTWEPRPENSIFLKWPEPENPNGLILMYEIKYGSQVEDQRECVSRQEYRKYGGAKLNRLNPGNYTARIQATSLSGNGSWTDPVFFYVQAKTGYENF
T3 sequence (P08069 31-933): as above
T2 sequence (P08069 31-1367, stated change not applied): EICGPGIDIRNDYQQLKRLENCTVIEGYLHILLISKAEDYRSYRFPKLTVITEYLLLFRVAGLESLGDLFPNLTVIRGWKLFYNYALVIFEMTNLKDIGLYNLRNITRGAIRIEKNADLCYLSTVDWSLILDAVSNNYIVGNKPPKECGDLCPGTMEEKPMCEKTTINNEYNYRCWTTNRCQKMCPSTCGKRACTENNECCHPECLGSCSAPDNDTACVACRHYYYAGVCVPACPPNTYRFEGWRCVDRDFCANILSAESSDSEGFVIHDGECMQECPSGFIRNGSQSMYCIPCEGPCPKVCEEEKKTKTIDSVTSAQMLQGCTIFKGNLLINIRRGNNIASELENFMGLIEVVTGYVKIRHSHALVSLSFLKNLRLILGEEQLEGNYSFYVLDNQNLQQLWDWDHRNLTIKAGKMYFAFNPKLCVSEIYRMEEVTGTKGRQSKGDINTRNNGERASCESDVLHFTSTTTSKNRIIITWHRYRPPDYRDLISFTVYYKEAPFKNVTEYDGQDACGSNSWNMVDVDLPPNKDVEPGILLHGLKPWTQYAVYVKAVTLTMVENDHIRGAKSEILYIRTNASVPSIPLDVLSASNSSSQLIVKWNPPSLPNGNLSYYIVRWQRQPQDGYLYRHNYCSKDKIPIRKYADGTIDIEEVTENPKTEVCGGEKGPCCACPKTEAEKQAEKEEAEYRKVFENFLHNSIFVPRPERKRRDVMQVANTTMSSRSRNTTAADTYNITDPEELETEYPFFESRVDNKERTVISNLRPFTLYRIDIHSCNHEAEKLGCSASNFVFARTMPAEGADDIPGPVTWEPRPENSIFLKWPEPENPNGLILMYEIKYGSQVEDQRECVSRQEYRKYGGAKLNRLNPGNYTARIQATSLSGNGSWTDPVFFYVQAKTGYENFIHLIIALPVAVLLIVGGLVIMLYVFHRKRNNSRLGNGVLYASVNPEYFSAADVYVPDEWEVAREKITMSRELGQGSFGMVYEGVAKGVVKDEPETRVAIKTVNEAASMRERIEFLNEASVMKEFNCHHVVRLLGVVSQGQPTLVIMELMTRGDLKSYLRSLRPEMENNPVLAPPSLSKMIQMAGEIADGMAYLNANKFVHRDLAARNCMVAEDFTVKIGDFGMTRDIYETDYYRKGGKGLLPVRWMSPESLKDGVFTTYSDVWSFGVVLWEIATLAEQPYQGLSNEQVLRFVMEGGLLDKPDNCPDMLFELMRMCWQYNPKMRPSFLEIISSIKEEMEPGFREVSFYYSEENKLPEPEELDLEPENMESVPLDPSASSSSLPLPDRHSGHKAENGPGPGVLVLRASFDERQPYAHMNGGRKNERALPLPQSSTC
T1 sequence (P08069 31-933 H494E): as the sequence (P08069 31-933) above, with H464E counted along it
T5 sequence (P08069 31-933 E489A/S490A): as the sequence (P08069 31-933) above, with E459A, S460A counted along it

B1: M13-C06 antibody (antibody, V domains shown)
VH: EVQLLESGGGLVQPGGSLRLSCAASGFTFSIYRMQWVRQAPGKGLEWVSGISPSGGTTWYADSVKGRFTISRDNSKNTLYLQMNSLRAEDTAVYYCARWSGGSGYAFDIWGQGTMVTVSS
VL: DIQMTQSPLSLSASVGDRVTITCQASRDIRNYLNWYQQKPGKAPKLLIYDASSLQTGVPSRFGGSGSGTDFSFTIGSLQPEDIATYYCQQFDSLPHTFGQGTKLEIK
notes: Fully human full-length antibody (ATCC PTA-7444); also called M13.C06.G4.P.agly; M13-C06.G4P.agly
As to B1, the binding result in assay [1] is “no binding”. Moreover, the EC50 in assay [2] was less than 1 nM. In addition, in assay [3], the IC50 was 1.9 nM. In assay [4], the “ΔH°” value is -21.9 kcal/mol. Besides, the “IC50 (read off the curve)” value in assay [5] was roughly 1 nM. For the same molecule, in assay [6], the “-TΔS” value turned out to be 10.6 kcal/mol, the Kd was no more than 5 nM and the ΔG is -11.3 kcal/mol. Besides, the “IC50 (read off the curve)” value in assay [7] was roughly 1 nM.

B2: M13-C06 Fab (Fab, V domains shown)
VH: B1 VH
VL: B1 VL
notes: Fab made by enzymatic digestion of the IgG
Take B2: the binding result in assay [8] is given as “no binding (tested: up to 10 nM Fab)”.

These data come from patent US20090130105A1 (Biogen, published 2009).
